In US20240294611A1 (University of Texas, published 2024):

Target: SARS-CoV spike without stabilizing modifications on pseudovirus (SARS-CoV, UniProt P59594 14-1255)
Assay: cell-based or functional assay

B1: 3A3 full-length antibody (mouse variable region-human IgG1 constant region chimera) (antibody, V domains shown)
VH: QVQLQQSGAELLKPGASVKLSCTASGFNIKDTYIHWLKQRPEQGLEWIGRIGPAIGNTIYAPKFQGKATITTDTSSNTAYLQLSSLTSEDTAVYYCARYYGSSYYYFDYWGQGTTLTVSS
VL: DIVMTQSAPSVPVTPGESVSISCRSSKSLLHSNGNTYLYWFLQRPGQSPQLLIYRMSNLASGVPDRFSGSGSGTAFTLRISRVEAEDVGVYYCMQYLEYPLTFGAGTKLELKR
- Pseudovirus IC50: 0.188 µM
